This is an account of results in patent US20240209100A1 (DIAGONAL THERAPEUTICS, published 2024).

Assay [1] has as its target T1, IL-18 receptor (IL-18Rα/IL-18Rβ) overexpressed on HEK-Blue IL-18 cells (Homo sapiens (Human), UniProt Q13478 19-541; O95256 20-599).
T1 sequence 1: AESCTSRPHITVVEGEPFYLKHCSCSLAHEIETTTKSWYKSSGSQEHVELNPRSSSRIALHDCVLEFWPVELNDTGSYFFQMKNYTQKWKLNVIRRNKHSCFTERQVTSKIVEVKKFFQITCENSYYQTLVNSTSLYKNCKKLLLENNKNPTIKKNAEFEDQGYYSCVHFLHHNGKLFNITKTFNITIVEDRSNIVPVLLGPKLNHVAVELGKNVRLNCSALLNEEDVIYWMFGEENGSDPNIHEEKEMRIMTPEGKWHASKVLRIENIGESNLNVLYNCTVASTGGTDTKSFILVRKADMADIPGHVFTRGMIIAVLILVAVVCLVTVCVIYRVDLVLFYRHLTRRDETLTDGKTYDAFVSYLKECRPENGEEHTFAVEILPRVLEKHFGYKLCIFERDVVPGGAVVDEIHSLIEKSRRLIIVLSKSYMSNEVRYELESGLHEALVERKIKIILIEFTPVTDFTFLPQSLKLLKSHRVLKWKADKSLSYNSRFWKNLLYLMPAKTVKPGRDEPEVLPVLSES
T1 sequence 2: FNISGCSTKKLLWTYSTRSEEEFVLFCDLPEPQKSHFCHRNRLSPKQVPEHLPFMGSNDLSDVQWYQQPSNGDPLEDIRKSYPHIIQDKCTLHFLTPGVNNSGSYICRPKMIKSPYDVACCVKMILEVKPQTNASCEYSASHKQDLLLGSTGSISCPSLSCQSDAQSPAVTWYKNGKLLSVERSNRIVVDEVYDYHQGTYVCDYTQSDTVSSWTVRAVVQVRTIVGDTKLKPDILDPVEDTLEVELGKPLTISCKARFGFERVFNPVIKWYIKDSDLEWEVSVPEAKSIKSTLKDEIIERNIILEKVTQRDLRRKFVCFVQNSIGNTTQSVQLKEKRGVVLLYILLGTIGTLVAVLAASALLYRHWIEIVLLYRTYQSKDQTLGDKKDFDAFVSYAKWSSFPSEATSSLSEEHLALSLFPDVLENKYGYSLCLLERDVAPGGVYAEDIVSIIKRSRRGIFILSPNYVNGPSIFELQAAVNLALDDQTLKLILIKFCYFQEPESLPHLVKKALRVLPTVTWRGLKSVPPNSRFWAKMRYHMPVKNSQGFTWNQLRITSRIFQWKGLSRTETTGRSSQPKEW
Put plainly: cell-based or functional assay.

Assay [2] deals with T2, IL-18 receptor (IL-18Rα/IL-18Rβ) on human PBMCs (human, UniProt Q13478 19-541; O95256 20-599).
T2 sequence 1: T1 sequence 1
T2 sequence 2: T1 sequence 2
In words: cell-based or functional assay.

In assay [3] the target is T1, IL-18 receptor (IL-18Rα/IL-18Rβ) …. In words: cell-based or functional assay. This is another data set of the same source.
In the next assay the target is T3, human IL-18Rα (human, UniProt Q13478 19-329, limits assumed).
T3 construct: Monomeric antigen injected in SPR; also called huIL18Ra; IL-18R alpha
T3 sequence: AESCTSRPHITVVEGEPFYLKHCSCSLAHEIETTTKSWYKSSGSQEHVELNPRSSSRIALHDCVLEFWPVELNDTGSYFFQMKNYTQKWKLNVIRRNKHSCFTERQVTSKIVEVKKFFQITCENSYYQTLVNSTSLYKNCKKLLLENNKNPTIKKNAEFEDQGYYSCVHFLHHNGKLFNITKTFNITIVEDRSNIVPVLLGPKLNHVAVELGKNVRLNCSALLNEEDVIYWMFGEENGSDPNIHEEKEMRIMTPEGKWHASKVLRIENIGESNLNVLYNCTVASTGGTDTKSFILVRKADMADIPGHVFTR
Put plainly: SPR (Carterra LSA), antibody captured on anti-human IgG-Fc, monomeric antigen as analyte, 25 C. The procedure: (§1) SPR experiments were performed using Carterra LSA equipped with an HC30M chip (Carterra-Bio). Binding assays were carried out at 25° C. with HBSTE (10 mM HEPES ph7.4, 150 mM NaCl, 3 mM EDTA, 0.05% Tween-20) with 0.5 g/L BSA. A density of anti-human IgG-Fc capture lawn was established on an HC30M chip using amine coupling. […] Coupling of goat anti-human IgG (H+L) multi-species SP ads-UNLB (Southern Biotech, 2087-01) with standard immobilization was done for 15 minutes in 10 mM sodium acetate pH 4.5 and quenched using 1M ethanolamine HCl PH8.5. The anti-human IgG-Fc capture surface was then used to capture a panel of antibodies at 20 μg/mL. Monomeric antigen for human IL-18Rα, human IL-18Rβ, cynomolgus IL-18Rα, or rhesus IL-18Rβ targeted by the antibodies was injected over the captured antibody array at 6 concentrations in 4-fold dilution series starting at 500 nM. Binding data was referenced and blanked from a buffer injected, then globally fit to a 1:1 Langmuir binding model for estimation of ka, kd, and KD using Carterra Kinetics Software.

The target of a further assay is T4, human IL-18Rβ (human, UniProt O95256 20-356, limits assumed).
T4 construct: Monomeric antigen injected in SPR; also called IL-18R beta; IL-18Rb
T4 sequence: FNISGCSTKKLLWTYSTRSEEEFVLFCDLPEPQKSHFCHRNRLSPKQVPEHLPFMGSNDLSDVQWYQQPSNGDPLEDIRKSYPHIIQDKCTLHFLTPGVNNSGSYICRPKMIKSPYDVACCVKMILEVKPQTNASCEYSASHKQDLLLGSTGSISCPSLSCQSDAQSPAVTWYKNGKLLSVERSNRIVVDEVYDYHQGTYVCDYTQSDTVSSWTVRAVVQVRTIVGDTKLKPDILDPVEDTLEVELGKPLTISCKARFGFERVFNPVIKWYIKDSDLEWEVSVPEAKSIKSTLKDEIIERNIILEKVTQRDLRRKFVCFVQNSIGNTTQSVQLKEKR
The assay is described as above. The procedure: as §1

The next assay has as its target T5, cynomolgus IL-18Rα (cynomolgus, UniProt A0A2K5V3J9 19-328).
T5 construct: also called Cyno IL-18Rα; non-human primate IL-18Rα
T5 sequence: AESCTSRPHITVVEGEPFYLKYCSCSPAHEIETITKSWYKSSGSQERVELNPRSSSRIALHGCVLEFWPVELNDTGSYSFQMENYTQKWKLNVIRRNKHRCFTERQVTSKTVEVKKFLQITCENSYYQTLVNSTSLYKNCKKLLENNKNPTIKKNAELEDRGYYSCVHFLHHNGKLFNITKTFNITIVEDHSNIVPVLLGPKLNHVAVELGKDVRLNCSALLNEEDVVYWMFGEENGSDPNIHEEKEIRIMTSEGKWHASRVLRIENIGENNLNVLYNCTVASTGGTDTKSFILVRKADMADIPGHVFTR
The assay is described as above. The method, then: as §1

For another assay, the target named is T6, rhesus IL-18Rβ (rhesus, UniProt F7HHC1 20-356).
T6 construct: also called non-human primate IL-18Rβ
T6 sequence: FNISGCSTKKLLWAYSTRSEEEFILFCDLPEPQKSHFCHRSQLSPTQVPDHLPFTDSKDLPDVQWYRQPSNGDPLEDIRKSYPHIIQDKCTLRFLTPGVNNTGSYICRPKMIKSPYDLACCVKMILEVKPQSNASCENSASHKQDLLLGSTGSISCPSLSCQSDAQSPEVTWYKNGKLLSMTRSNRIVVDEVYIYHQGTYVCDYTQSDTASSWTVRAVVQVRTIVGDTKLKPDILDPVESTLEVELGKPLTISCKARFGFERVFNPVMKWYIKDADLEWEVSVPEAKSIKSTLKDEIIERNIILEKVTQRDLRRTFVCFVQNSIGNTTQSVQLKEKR
The assay is described as above. The procedure:
as §1

B1: DGL620 (bispecific antibody)
heavy 1: EVQLLESGGGLVQPGGSLRLSCAASGRTFSKHAMGWFRQAPGKGLEFVSAIDWSGGSTYYADSVKGRFTISRDNSKNTVYLQMNSLRAEDTAVYYCAADSYTDYAQLWLPELESEYDYWGQGTLVTVSSCPPCPAPEAAGAPSVFLFPPKPKDTLYITREPEVTCVVVDVSHEDPEVKFNWYVDGVEVHNAKTKPREEQYNSTYRVVSVLTVLHQDWLNGKEYKCKVSNKALPAPIEKTISKAKGQPREPQVCTLPPSRDELTKNQVSLSCAVKGFYPSDIAVEWESNGQPENNYKTTPPVLDSDGSFFLVSKLTVDKSRWQQGNVFSCSVMHEALHNHYTQKSLSLSPG
heavy 2: QLQLLESGGGLVQAGGSLRLSCAASRSITFSHNVMGWYRQAPGKGRELVSSIGSGGSTNYVDSVKGRFTISRDNSKKTLYLQMNSLRAEDTAVYYCGVVVGVYRGSLGQGTLVTVSSCPPCPAPEAAGAPSVFLFPPKPKDTLYITREPEVTCVVVDVSHEDPEVKFNWYVDGVEVHNAKTKPREEQYNSTYRVVSVLTVLHQDWLNGKEYKCKVSNKALPAPIEKTISKAKGQPREPQVYTLPPCRDELTKNQVSLWCLVKGFYPSDIAVEWESNGQPENNYKTTPPVLDSDGSFFLYSKLTVDKSRWQQGNVFSCSVMHEALHNHYTQKSLSLSPG
For B1, in assay [1], the “HEK-Blue IL-18: Abs 405 at 100 nM” value turned out to be 1.87 Abs and the “HEK-Blue IL-18: Fold over Background” value amounted to 10.1 fold. Also, in assay [2], the “PBMC: calculated maximum induction of IFNγ after 24 hours, donor 1” value (“PBMC: calculated maximum induction … donor 1” for short) was 16000; the “PBMC: calculated maximum induction of IFNγ after 24 hours, donor 2” value (“PBMC: calculated maximum induction … donor 2” for short) was 1300; the “PBMC: calculated maximum induction of IFNγ after 24 hours, donor 3” value (“PBMC: calculated maximum induction … donor 3” for short) is 22000; the “PBMC: calculated maximum induction of IFNγ after 24 hours, donor 4” value (“PBMC: calculated maximum induction … donor 4” for short) is 19000. Further, in assay [2], the “PBMC: calculated maximum induction of IFNγ after 24 hours, donor 5” value (“PBMC: calculated maximum induction … donor 5” for short) is 15000 and the “PBMC: calculated maximum induction of IFNγ after 24 hours, donor 6” value (“PBMC: calculated maximum induction … donor 6” for short) is 2400. The “EC50 (read off the curve), HEK Blue IL-18 SEAP reporter” value in assay [3] is roughly 1 nM. Moreover, binding with human IL-18Rα was characterised by a dissociation constant (Kd) of 8 nM. The molecule further returned a Kd in the assay with human IL-18Rβ of 14 nM. Further, in the assay with cynomolgus IL-18Rα, the dissociation constant Kd was determined as 10 nM.

B2: DGL336 (bispecific antibody, V domains shown)
V domain 1: EVQLLESGGGLVQPGGSLRLSCAASGRTFSKHAMGWFRQAPGKGLEFVSAIDWSGGSTYYADSVKGRFTISRDNSKNTVYLQMNSLRAEDTAVYYCAADSYTDYAQLWLPELESEYDYWGQGTLVTVSS
V domain 2: EVQLVESGGGLIQPGGSLRLSCAASGSISSRDTMGWYRQAPGKGREMVSVISSSGNTNYADSVLGRFTISRDNAKNTVYLQMNALRAEDTAVYKCYAHRTYGVDYWGQGTLVTVSS
notes: humanized VHH-Fc heterodimer
As to B2, in assay [1], the “HEK-Blue IL-18: Abs 405 at 100 nM” value came out at 0.9 Abs and the “HEK-Blue IL-18: Fold over Background” value is 4.9 fold. For the same molecule, in assay [2], the “PBMC: calculated maximum induction … donor 1” value was 13000; the “PBMC: calculated maximum induction … donor 2” value was 620; the “PBMC: calculated maximum induction … donor 3” value was 17000; the “PBMC: calculated maximum induction … donor 4” value was 9300. Also, in assay [2], the “PBMC: calculated maximum induction … donor 5” value was 1500 and the “PBMC: calculated maximum induction … donor 6” value was 1300. For the same molecule, the dissociation constant (Kd) with human IL-18Rα amounted to 11 nM. This molecule also had a Kd in the assay with human IL-18Rβ of 3.2 nM. The same molecule had a Kd in the assay with cynomolgus IL-18Rα of 14 nM. For the same molecule, in the assay with rhesus IL-18Rβ, the Kd came out at 15 nM.

B3: DGL346 (bispecific antibody)
heavy 1: EVQLVESGGGLIQPGGSLRLSCAASGSISSRDTMGWYRQAPGKGREMVSVISSSGNTNYADSVLGRFTISRDNAKNTVYLQMNALRAEDTAVYKCYAHRTYGVDYWGQGTLVTVSSGGGSQVQLVESGGGLVQPGGSLRLSCAASGRTFSSYTMGWFRQAPGKGREFVSAISWSAGRTYYADSVKGRFTISRDNAKNTVYLQMNALRAEDTAVYYCAAEEAPDWAPIDCSGYGCLSLYDYWGQGTLVTVSDKTHTCPPCPAPEAAGAPSVFLFPPKPKDTLYITREPEVTCVVVDVSHEDPEVKFNWYVDGVEVHNAKTKPREEQYNSTYRVVSVLTVLHQDWLNGKEYKCKVSNKALPAPIEKTISKAKGQPREPQVCTLPPSRDELTKNQVSLSCAVKGFYPSDIAVEWESNGQPENNYKTTPPVLDSDGSFFLVSKLTVDKSRWQQGNVFSCSVMHEALHNHYTQKSLSLSPG
heavy 2: DKTHTCPPCPAPEAAGAPSVFLFPPKPKDTLYITREPEVTCVVVDVSHEDPEVKFNWYVDGVEVHNAKTKPREEQYNSTYRVVSVLTVLHQDWLNGKEYKCKVSNKALPAPIEKTISKAKGQPREPQVYTLPPCRDELTKNQVSLWCLVKGFYPSDIAVEWESNGQPENNYKTTPPVLDSDGSFFLYSKLTVDKSRWQQGNVFSCSVMHEALHNHYTQKSLSLSPG
notes: humanized
Consider B3, for which, in assay [1], the “HEK-Blue IL-18: Abs 405 at 100 nM” value was 1.34 Abs and the “HEK-Blue IL-18: Fold over Background” value was determined as 7.2 fold. In assay [2], the “PBMC: calculated maximum induction … donor 1” value is 16000; the “PBMC: calculated maximum induction … donor 2” value was 1700; the “PBMC: calculated maximum induction … donor 3” value is 22000; the “PBMC: calculated maximum induction … donor 4” value is 17000. For the same molecule, in assay [2], the “PBMC: calculated maximum induction … donor 5” value was 15000 and the “PBMC: calculated maximum induction … donor 6” value is 3000. Moreover, the Kd in the assay with human IL-18Rα is 60 nM. The molecule further returned a Kd with human IL-18Rβ of 2.2 nM. In the assay with cynomolgus IL-18Rα, this molecule had a Kd of 900 nM. Besides, in the assay with rhesus IL-18Rβ, the affinity, expressed as Kd, was 10 nM.
